# Data reported in paper PMC10976570.
# Target: wild-type PlaF (phospholipase A1 PlaF, PA2949) from Pseudomonas aeruginosa (Pseudomonas aeruginosa)
# Experiment: cross-linking
substance,measurement,value
"wild-type PlaF (phospholipase A1 PlaF, PA2949) from Pseudomonas aeruginosa (enzyme)",more dimer in the C10-treated sample than in the untreated one,70%
same,stoichiometry N,2
